Source: article PMC6327505, “Adaption to glucose limitation is modulated by the pleotropic regulator CcpA, independent of selection pressure strength”

Target: T1, CcpA-Ile19 (evolved, 445C1) (Lactococcus lactis MG1363 (evolved …, UniProt A2RJC5 1-332, M19I))
T1 sequence: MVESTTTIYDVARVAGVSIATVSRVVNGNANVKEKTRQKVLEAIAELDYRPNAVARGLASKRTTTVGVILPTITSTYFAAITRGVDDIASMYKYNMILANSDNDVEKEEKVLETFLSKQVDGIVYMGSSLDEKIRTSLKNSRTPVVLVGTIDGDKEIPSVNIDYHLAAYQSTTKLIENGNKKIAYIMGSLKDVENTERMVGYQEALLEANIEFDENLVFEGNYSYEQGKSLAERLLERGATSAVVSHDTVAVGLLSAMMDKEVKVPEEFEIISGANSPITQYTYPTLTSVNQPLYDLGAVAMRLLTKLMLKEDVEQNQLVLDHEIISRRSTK
Experiment: EMSA; 100-800 nM CcpA, 4 nM DNA; affinity increased vs Met19, least pronounced; EMSA: 20 mM Tris-HCl pH 8, 100 mM KCl, 10 mM MgCl2, 1 mM EDTA, 1 mM DTT, 5% glycerol, 40 ug/ml BSA, 4 nM Cy3-DNA, 30 C 20 min; 7.5% native PAGE in TBE
Conditions: protein: recombinant; tags: N-terminal 6xHis (pQE30); chain copies: 2; label: 5'-Cy3 on (+) strand; blunt

B1: mtlD cre (dsDNA)
DNA 1: ACCACAATGTAAAAGCTTACAATTGCT
DNA 2: AGCAATTGTAAGCTTTTACATTGTGGT
- binding result: binds
